Legend:
[1] = target: human proinsulin (human) (UniProt P01308); assay: competitive RIA, PEP001-coated tubes, 125I-Tyr-C-peptide; serum E2 overloaded with 0.16 pmol/ml proinsulin; no AC1D4
[2] = target: human proinsulin (human) (UniProt P01308); assay: sandwich immunoenzymatic C-peptide assay: PEP001 beads, goat polyclonal anti-C-peptide-alkaline phosphatase; no AC1D4
[3] = target: des-31,32-proinsulin (UniProt P01308); assay: competitive RIA, PEP001-coated tubes, 125I-Tyr-C-peptide; serum E2 overloaded with 0.16 pmol/ml des-31,32-proinsulin; no AC1D4
[4] = target: des-64,65-proinsulin (UniProt P01308); assay: competitive RIA, PEP001-coated tubes, 125I-Tyr-C-peptide; serum E1 overloaded with 0.67 pmol/ml des-64,65-proinsulin; no AC1D4
[5] = target: human proinsulin (human) (UniProt P01308); assay: competitive RIA, PEP001-coated tubes, 125I-Tyr-C-peptide; serum E1 overloaded with 0.16 pmol/ml proinsulin; competitor AC1D4 20 µg/ml
[6] = target: des-64,65-proinsulin (UniProt P01308); assay: competitive RIA, PEP001-coated tubes, 125I-Tyr-C-peptide; serum E2 overloaded with 0.16 pmol/ml des-64,65-proinsulin; competitor AC1D4 20 µg/ml

Increase after overload (%) [1]: 1%
percentage of cross reaction [2]: 92%
Increase after overload (%) [3]: 10%
Increase after overload (%) [4]: 49%
Increase after overload (%) [5]: 0%
Increase after overload (%) [6]: 0%
Substance: PEP001 anti-C-peptide monoclonal antibody

From patent US20050037448A1
